{"source": "paper PMC6497953", "biological_target": "PilE2, major pilin of Streptococcus sanguinis 2908 type IV pili (mature, untagged) (Streptococcus sanguinis 2908)", "test": "top-down mass spectrometry of purified filaments; purified Tfp from S. sanguinis WT, intact protein mass spectra on an LTQ Orbitrap; ratio of the two major proteoforms", "data": [{"substance": "PilE1, major pilin of Streptococcus sanguinis 2908 type IV pili (mature, untagged) (natural protein)", "values": [{"measurement": "stoichiometry N (PilE1 per PilE2)", "result": 1.33}]}]}
